Assay results published in publication PMC2789841.

Columns and labels:
Assay in all cases: SPR
[1] = molecular target: oligomeric Aβ42
[2] = molecular target: oligomeric Aβ40
[3] = molecular target: Recombinant human CypD protein (cyclophilin D) (human) (UniProt P30405)

Substance	Kd [1]	Kd [2]	Kd [3]
Recombinant human CypD protein (cyclophilin D) (from UniProt P30405 30-207) (natural protein)	4 nM	227 nM	–
Aβ42 (Aβ peptide residues 1-42)	–	–	164 nM
Aβ40 (Aβ peptide residues 1-40)	–	–	1700 nM
